The values that follow come from patent US20240344040A1, “PROKARYOTIC AND EUKARYOTIC CELLS WITH BIOSYNTHESIZED SULFOTYROSINE FOR GENETIC INCORPORATION” (William Marsh Rice University, priority 2023, published 2024).

A word on the Ki: it is the dissociation constant of the complex between target and ligand, obtained from inhibition or displacement.

*: point of attachment. sulfate = O=S(=O)(O)*

Assay [1] has as its target T1, thrombin (Homo sapiens, UniProt P00734). The experiment in a line: chromogenic thrombin amidolytic activity assay. The format is biochemical. The conditions noted are these: tight-binding model, Morrison equation; inhibitors expressed in E. coli, sulfotyrosine biosynthesized; read-out: Ki, inhibition of thrombin activity. As to the method: FIG. 18: Inhibition constants (Ki) of all thrombin inhibitors used in this study: Ki+standard error were calculated based on a tight-binding model, using Morrison equation in Prism. Standard errors were calculated from n=3 independent samples.
To test the thrombin inhibiting activity of the wild type inhibitors and their sulfotyrosine-containing mutants, chromogenic thrombin amidolytic activity assays were performed in the presence of a range of concentrations of each inhibitor. […] Double sulfation of chimadanin at both Tyr28 and Tyr31 further improved its Ki to 0.1 nM, consistent with the madanin-1 study. […] This may be due to the fact that co-translational folding is more efficient than that achieved via chemical synthesis.

For assay [2], the system named is tyrosine sulfation (sulfotyrosine-containing sfGFP production). As to the kind of experiment: green fluorescent protein assay of tyrosine sulfotransferase activity. As to conditions: BL21(DE3), pBad vector, sfGFP134TAG reporter, LB medium. The assay is classed as cell-based, Escherichia coli.
Experimental: To explore the activity of these sulfotransferases towards tyrosine, a green fluorescent protein assay was used (Chen et al., 2018; Chen et al., 2019). […] The suppressor plasmid (pUltra-sulfotyrosine) was used to suppress the amber codon (Asp134TAG) within a sfGFP variant encoded by the pLei-sfGFP134TAG plasmid in the presence of sulfotyrosine. Expression of full-length sfGFP was carried out in LB medium for 16 hours in parallel with controls BL21(DE3) harboring pUltra-sulfotyrosine, pLei-sfGFP134TAG and pBad-Empty in the presence and absence of exogenously fed 1 mM sulfotyrosine.
The target of assay [3] is T1, thrombin. The conditions noted are these: sulfated versus unsulfated hirudin; cited from earlier work.

B1: wildtype chimadanin: thrombin inhibitor from the salivary gland of Haemaphysalis longicornis, His-tagged, expressed in E. coli; Table 1 sequence names seem swapped (protein)
chain: MQPKEKTKGVEVEGNPATLISARQMDVSYDEYEDNGPDVIPGEPAKPRGGPKNGAASGKFDQIPDFSSESHHHHHHH
For B1, the inhibitory constant (Ki) in assay [1] was 12.9 nM.

B2: Madanin-1 sulfated at both Tyr32 and Tyr35 (protein)
chain: MYPERDSAKEGNQEQERALHVKVQKRTDGDADY(sulfate)DEY(sulfate)EEDGTTPTPDPTAPTAKPRLRGNKPHHHHHH
Regarding B2, the Ki in assay [1] was 0.5 nM.

B3: A0A091VQH7: putative sulfotransferase from Nipponia nippon, SEQ ID NO: 1 (protein)
chain: IALDKMEDLSLKETVVSRAEICEVEGIPFTKPICSTWDQVWKFKARPDDLLIATYTKAGTTWTQEIVDMIQQNGDVEKCRRATTYRRHPFLEWSIQEPPAASYSGLELAEAMPSPRTIKTHLPVQLLPPSFWEQNCKIIYVARNAKDNLVSYYHFHRMSKEMPDPGTWEEFMEKFMTGKVLWGSWYDHVKGWWKAKDRHRILYLFYEDMKENPKQEIQKILKFLEKDVNQEVLNKILHNTSFEIMKDNPMTNYTTEFQGIMDHSISPFMRKGVVGDWKNYFTVAQNEKFDEDYKKKMADTSLVFRTEL
modifications: Nipponia nippon
As to B3, in assay [2], the “increase in fluorescence compared to cells not given exogenous sulfotyrosine” value was 2.5 fold.

B4: hirudin: thrombin inhibitor; tyrosine-sulfated form compared with unsulfated; SEQ ID NO: 109 in Table 1 (protein, listed as Hirudo medicinalis)
chain: MKKNIAFLLASMFVFSIATNAYAMRYTACTESGQNQCICEGNDVCGQGRNCQFDSSGKKCVEGEGTRKPQNEGQHDFDPIPEEYLSHHHHHH
modifications: tyrosine sulfation
Consider B4, for which the “increase of affinity for thrombin by tyrosine sulfation” value in assay [3] is recorded as “more than 10 fold”.
